# Experimental data as given in PMC8467691, “Human Cystathionine γ-Lyase Is Inhibited by S-Nitrosation: A New Crosstalk Mechanism between NO and H2S” (Antioxidants, 2021).
# Target: the molecule itself
# Experiment: SEC; HiLoad 16/600 Superdex 200 in buffer B (20 mM Tris-HCl, pH 7.5, 150 mM NaCl, 10% glycerol, 100 μM TCEP, 20 μM PLP), after the HisTrap step of the purification
row,Protein,stoichiometry N
1,"wild-type human cystathionine γ-lyase (enzyme, UniProt P32929 1-405, looked up, human cystathionine γ-lyase (CSE), wild type; TEV and 3C protease recognition sites follow the His6 tag; No cleavage of the tag is told; also called CSE; WT CSE; source: recombinant, synthetic gene in pET-28b, purified (HisTrap FF Crude, Superdex 200 SEC)) MQEKDASSQGFLPHFQHFATQAIHVGQDPEQWTSRAVVPPISLSTTFKQGAPGQHSGFEYSRSGNPTRNCLEKAVAALDGAKYCLAFASGLAATVTITHLLKAGDQIICMDDVYGGTNRYFRQVASEFGLKISFVDCSKIKLLEAAITPETKLVWIETPTNPTQKVIDIEGCAHIVHKHGDIILVVDNTFMSPYFQRPLALGADISMYSATKYMNGHSDVVMGLVSVNCESLHNRLRFLQNSLGAVPSPIDCYLCNRGLKTLHVRMEKHFKNGMAVAQFLESNPWVEKVIYPGLPSHPQHELVKRQCTGCTGMVTFYIKGTLQHAEIFLKNLKLFTLAESLGGFESLAELPAIMTHASVLKNDRDVLGISDTLIRLSVGLEDEEDLLEDLDQALKAAHPPSGSHS",4
2,"human cystathionine γ-lyase C137S variant (enzyme, UniProt P32929 1-405, looked up, human cystathionine γ-lyase (CSE) with C137S; TEV and 3C protease recognition sites follow the His6 tag; also called C137S CSE; source: recombinant, pET-28b, site-directed mutagenesis of the WT vector, purified (HisTrap FF Crude, Superdex 200 SEC)) MQEKDASSQGFLPHFQHFATQAIHVGQDPEQWTSRAVVPPISLSTTFKQGAPGQHSGFEYSRSGNPTRNCLEKAVAALDGAKYCLAFASGLAATVTITHLLKAGDQIICMDDVYGGTNRYFRQVASEFGLKISFVDSSKIKLLEAAITPETKLVWIETPTNPTQKVIDIEGCAHIVHKHGDIILVVDNTFMSPYFQRPLALGADISMYSATKYMNGHSDVVMGLVSVNCESLHNRLRFLQNSLGAVPSPIDCYLCNRGLKTLHVRMEKHFKNGMAVAQFLESNPWVEKVIYPGLPSHPQHELVKRQCTGCTGMVTFYIKGTLQHAEIFLKNLKLFTLAESLGGFESLAELPAIMTHASVLKNDRDVLGISDTLIRLSVGLEDEEDLLEDLDQALKAAHPPSGSHS",4
3,"human cystathionine γ-lyase C307S variant (enzyme, UniProt P32929 1-405, looked up, human cystathionine γ-lyase (CSE) with C307S; TEV and 3C protease recognition sites follow the His6 tag; also called C307S CSE; source: recombinant, pET-28b, site-directed mutagenesis of the WT vector, purified (HisTrap FF Crude, Superdex 200 SEC)) MQEKDASSQGFLPHFQHFATQAIHVGQDPEQWTSRAVVPPISLSTTFKQGAPGQHSGFEYSRSGNPTRNCLEKAVAALDGAKYCLAFASGLAATVTITHLLKAGDQIICMDDVYGGTNRYFRQVASEFGLKISFVDCSKIKLLEAAITPETKLVWIETPTNPTQKVIDIEGCAHIVHKHGDIILVVDNTFMSPYFQRPLALGADISMYSATKYMNGHSDVVMGLVSVNCESLHNRLRFLQNSLGAVPSPIDCYLCNRGLKTLHVRMEKHFKNGMAVAQFLESNPWVEKVIYPGLPSHPQHELVKRQSTGCTGMVTFYIKGTLQHAEIFLKNLKLFTLAESLGGFESLAELPAIMTHASVLKNDRDVLGISDTLIRLSVGLEDEEDLLEDLDQALKAAHPPSGSHS",4
4,"human cystathionine γ-lyase C172S variant (enzyme, UniProt P32929 1-405, looked up, human cystathionine γ-lyase (CSE) with C172S; TEV and 3C protease recognition sites follow the His6 tag; also called C172S CSE; source: recombinant, pET-28b, site-directed mutagenesis of the WT vector, purified (HisTrap FF Crude, Superdex 200 SEC)) MQEKDASSQGFLPHFQHFATQAIHVGQDPEQWTSRAVVPPISLSTTFKQGAPGQHSGFEYSRSGNPTRNCLEKAVAALDGAKYCLAFASGLAATVTITHLLKAGDQIICMDDVYGGTNRYFRQVASEFGLKISFVDCSKIKLLEAAITPETKLVWIETPTNPTQKVIDIEGSAHIVHKHGDIILVVDNTFMSPYFQRPLALGADISMYSATKYMNGHSDVVMGLVSVNCESLHNRLRFLQNSLGAVPSPIDCYLCNRGLKTLHVRMEKHFKNGMAVAQFLESNPWVEKVIYPGLPSHPQHELVKRQCTGCTGMVTFYIKGTLQHAEIFLKNLKLFTLAESLGGFESLAELPAIMTHASVLKNDRDVLGISDTLIRLSVGLEDEEDLLEDLDQALKAAHPPSGSHS",4
5,"human cystathionine γ-lyase C109S variant (enzyme, UniProt P32929 1-405, looked up, human cystathionine γ-lyase (CSE) with C109S; TEV and 3C protease recognition sites follow the His6 tag; also called C109S CSE; source: recombinant, pET-28b, site-directed mutagenesis of the WT vector, purified (HisTrap FF Crude, Superdex 200 SEC)) MQEKDASSQGFLPHFQHFATQAIHVGQDPEQWTSRAVVPPISLSTTFKQGAPGQHSGFEYSRSGNPTRNCLEKAVAALDGAKYCLAFASGLAATVTITHLLKAGDQIISMDDVYGGTNRYFRQVASEFGLKISFVDCSKIKLLEAAITPETKLVWIETPTNPTQKVIDIEGCAHIVHKHGDIILVVDNTFMSPYFQRPLALGADISMYSATKYMNGHSDVVMGLVSVNCESLHNRLRFLQNSLGAVPSPIDCYLCNRGLKTLHVRMEKHFKNGMAVAQFLESNPWVEKVIYPGLPSHPQHELVKRQCTGCTGMVTFYIKGTLQHAEIFLKNLKLFTLAESLGGFESLAELPAIMTHASVLKNDRDVLGISDTLIRLSVGLEDEEDLLEDLDQALKAAHPPSGSHS",4
6,"human cystathionine γ-lyase C70S variant (enzyme, UniProt P32929 1-405, looked up, human cystathionine γ-lyase (CSE) with C70S; TEV and 3C protease recognition sites follow the His6 tag; also called C70S CSE; source: recombinant, pET-28b, site-directed mutagenesis of the WT vector, purified (HisTrap FF Crude, Superdex 200 SEC)) MQEKDASSQGFLPHFQHFATQAIHVGQDPEQWTSRAVVPPISLSTTFKQGAPGQHSGFEYSRSGNPTRNSLEKAVAALDGAKYCLAFASGLAATVTITHLLKAGDQIICMDDVYGGTNRYFRQVASEFGLKISFVDCSKIKLLEAAITPETKLVWIETPTNPTQKVIDIEGCAHIVHKHGDIILVVDNTFMSPYFQRPLALGADISMYSATKYMNGHSDVVMGLVSVNCESLHNRLRFLQNSLGAVPSPIDCYLCNRGLKTLHVRMEKHFKNGMAVAQFLESNPWVEKVIYPGLPSHPQHELVKRQCTGCTGMVTFYIKGTLQHAEIFLKNLKLFTLAESLGGFESLAELPAIMTHASVLKNDRDVLGISDTLIRLSVGLEDEEDLLEDLDQALKAAHPPSGSHS",4
7,"human cystathionine γ-lyase C229S variant (enzyme, UniProt P32929 1-405, looked up, human cystathionine γ-lyase (CSE) with C229S; TEV and 3C protease recognition sites follow the His6 tag; also called C229S CSE; source: recombinant, pET-28b, site-directed mutagenesis of the WT vector, purified (HisTrap FF Crude, Superdex 200 SEC)) MQEKDASSQGFLPHFQHFATQAIHVGQDPEQWTSRAVVPPISLSTTFKQGAPGQHSGFEYSRSGNPTRNCLEKAVAALDGAKYCLAFASGLAATVTITHLLKAGDQIICMDDVYGGTNRYFRQVASEFGLKISFVDCSKIKLLEAAITPETKLVWIETPTNPTQKVIDIEGCAHIVHKHGDIILVVDNTFMSPYFQRPLALGADISMYSATKYMNGHSDVVMGLVSVNSESLHNRLRFLQNSLGAVPSPIDCYLCNRGLKTLHVRMEKHFKNGMAVAQFLESNPWVEKVIYPGLPSHPQHELVKRQCTGCTGMVTFYIKGTLQHAEIFLKNLKLFTLAESLGGFESLAELPAIMTHASVLKNDRDVLGISDTLIRLSVGLEDEEDLLEDLDQALKAAHPPSGSHS",4
8,"human cystathionine γ-lyase C310S variant (enzyme, UniProt P32929 1-405, looked up, human cystathionine γ-lyase (CSE) with C310S; TEV and 3C protease recognition sites follow the His6 tag; also called C310S CSE; source: recombinant, pET-28b, site-directed mutagenesis of the WT vector, purified (HisTrap FF Crude, Superdex 200 SEC)) MQEKDASSQGFLPHFQHFATQAIHVGQDPEQWTSRAVVPPISLSTTFKQGAPGQHSGFEYSRSGNPTRNCLEKAVAALDGAKYCLAFASGLAATVTITHLLKAGDQIICMDDVYGGTNRYFRQVASEFGLKISFVDCSKIKLLEAAITPETKLVWIETPTNPTQKVIDIEGCAHIVHKHGDIILVVDNTFMSPYFQRPLALGADISMYSATKYMNGHSDVVMGLVSVNCESLHNRLRFLQNSLGAVPSPIDCYLCNRGLKTLHVRMEKHFKNGMAVAQFLESNPWVEKVIYPGLPSHPQHELVKRQCTGSTGMVTFYIKGTLQHAEIFLKNLKLFTLAESLGGFESLAELPAIMTHASVLKNDRDVLGISDTLIRLSVGLEDEEDLLEDLDQALKAAHPPSGSHS",4
9,"human cystathionine γ-lyase C84S variant (enzyme, UniProt P32929 1-405, looked up, human cystathionine γ-lyase (CSE) with C84S; TEV and 3C protease recognition sites follow the His6 tag; also called C84S CSE; source: recombinant, pET-28b, site-directed mutagenesis of the WT vector, purified (HisTrap FF Crude, Superdex 200 SEC)) MQEKDASSQGFLPHFQHFATQAIHVGQDPEQWTSRAVVPPISLSTTFKQGAPGQHSGFEYSRSGNPTRNCLEKAVAALDGAKYSLAFASGLAATVTITHLLKAGDQIICMDDVYGGTNRYFRQVASEFGLKISFVDCSKIKLLEAAITPETKLVWIETPTNPTQKVIDIEGCAHIVHKHGDIILVVDNTFMSPYFQRPLALGADISMYSATKYMNGHSDVVMGLVSVNCESLHNRLRFLQNSLGAVPSPIDCYLCNRGLKTLHVRMEKHFKNGMAVAQFLESNPWVEKVIYPGLPSHPQHELVKRQCTGCTGMVTFYIKGTLQHAEIFLKNLKLFTLAESLGGFESLAELPAIMTHASVLKNDRDVLGISDTLIRLSVGLEDEEDLLEDLDQALKAAHPPSGSHS",4
